B1: iPAK4 (fusion of the catalytic domain of the Pak4 kinase and the 38 amino acid iBox domain of its inhibitor Inka1) (other)
chain: MDYKDDDDKSGSEAEDWTAALLNRGRSRQPLVLGDNCFADLVHNWMELPEEFPAAPAVPGPPGPRSPQREPQRVSHEQFRAALQLVVDPGDPRSYLDNFIKIGEGSTGIVCIATVRSSGKLVAVKKMDLRKQQRRELLFNEVVIMRDYQHENVVEMYNSYLVGDELWVVMEFLEGGALTDIVTHTRMNEEQIAAVCLAVLQALSVLHAQGVIHRDIKSDSILLTHDGRVKLSDFGFCAQVSKEVPRRKSLVGTPYWMAPELISRLPYGPEVDIWSLGIMVIEMVDGEPPYFNEPPLKAMKMIRDNLPPRLKNLHKVSPSLKGFLDRLLVRDPAQRATAAELLKHPFLAKAGPPASIVPLMRQNRTR
notes: also called ibox-PAK4cat; CMV::iPAK4

Data set [1] deals with the molecule itself. Nature of the data set: time-lapse fluorescence microscopy of intracellular self-assembly in cultured rat hippocampal neurons.
For data set [2], the target named is B1. The data set is described as follows: co-expression in HEK cells; fluorescence imaging of HT-iPAK4 incorporated into iPAK4 assemblies. As to the method: To assess the suitability of iPAK4 assemblies as a recording medium, a detailed characterization of their nucleation and growth was performed. CMV::iPAK4 (90%), CMV::eGFP-iPAK4 (5%), and CMV::HT-iPAK4 (5%) were co-expressed in HEK cells using lentiviral transduction, and JF₆₆₉ was added to the medium to label the HT. Time-lapse video microscopy was recorded over a 13 hour interval starting 1 hour after transfection, and over 43 hours starting 20 hours after transfection. The fluorescence of the cytoplasm and the growth of individual assemblies was then tracked. Initially, green (eGFP) and red (HT-JF₆₆₉) fluorescence accumulated in the cytoplasm. Upon nucleation, assemblies grew quickly (˜0.5 μm/min) at first, while the cytoplasmic fluorescence dropped. This phase typically lasted approximately 1 h. The assemblies then transitioned to slower linear growth (FIG. 1E). […] A simple mass-action kinetic model predicted the two-phase growth profiles and quantitatively reproduced the observed growth profiles (Calculation 1, FIGS. 7A-7E).

For the molecule B1, the binding result in data set [1] is “binds”.

B2: HaloTag-iPAK4 (other)
chain: MIGTGFPFDPHYVEVLGERMHYVDVGPRDGTPVLFLHGNPTSSYVWRNIIPHVAPTHRCIAPDLIGMGKSDKPDLGYFFDDHVRFMDAFIEALGLEEVVLVIHDWGSALGFHWAKRNPERVKGIAFMEFIRPIPTWDEWPEFARETFQAFRTTDVGRKLIIDQNVFIEGTLPMGVVRPLTEVEMDHYREPFLNPVDREPLWRFPNELPIAGEPANIVALVEEYMDWLHQSPVPKLLFWGTPGVLIPPAEAARLAKSLPNCKAVDIGPGLNLLQEDNPDLIGSEIARWLSTLEISGEPTTSGSEAEDWTAALLNRGRSRQPLVLGDNCFADLVHNWMELPEEFPAAPAVPGPPGPRSPQREPQRVSHEQFRAALQLVVDPGDPRSYLDNFIKIGEGSTGIVCIATVRSSGKLVAVKKMDLRKQQRRELLFNEVVIMRDYQHENVVEMYNSYLVGDELWVVMEFLEGGALTDIVTHTRMNEEQIAAVCLAVLQALSVLHAQGVIHRDIKSDSILLTHDGRVKLSDFGFCAQVSKEVPRRKSLVGTPYWMAPELISRLPYGPEVDIWSLGIMVIEMVDGEPPYFNEPPLKAMKMIRDNLPPRLKNLHKVSPSLKGFLDRLLVRDPAQRATAAELLKHPFLAKAGPPASIVPLMRQNRTR
notes: also called HT-iPAK4; CMV::HT-iPAK4
On to B2, for which the binding result in data set [2] is “binds”.
